How the values were obtained:
Aurora-A = biological target: T1, Aurora-A (Homo sapiens, UniProt O14965); assay: Millipore radiometric kinase activity assay, Aurora-A (h); type: biochemical
T1 construct: purchased Millipore (assay service)
T1 sequence (O14965 1-403): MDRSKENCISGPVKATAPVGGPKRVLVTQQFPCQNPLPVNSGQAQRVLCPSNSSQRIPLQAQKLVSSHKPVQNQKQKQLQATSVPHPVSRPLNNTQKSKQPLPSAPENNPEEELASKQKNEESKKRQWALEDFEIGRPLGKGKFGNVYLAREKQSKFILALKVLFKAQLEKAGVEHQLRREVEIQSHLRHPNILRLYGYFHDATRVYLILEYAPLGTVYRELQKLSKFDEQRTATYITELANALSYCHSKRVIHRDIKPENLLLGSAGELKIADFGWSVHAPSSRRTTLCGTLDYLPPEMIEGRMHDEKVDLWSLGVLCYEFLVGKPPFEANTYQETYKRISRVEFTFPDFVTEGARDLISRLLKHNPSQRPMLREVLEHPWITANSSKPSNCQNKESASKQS
Experimental: (§1) A commercial radiometric assay service (Millipore, Billerica, Mass.) was used to test the specificity and potency of peptides containing a coupled transduction domain and therapeutic domain, hereinafter “complete peptides”). In these assays, if the kinase is not inhibited by an inhibitor peptide, a positively charged substrate is phosphorylated with a radiolabeled phosphate group from an ATP.
In a final reaction volume of 25 μL, Aurora-A (h) (5-10 mU) is incubated with 8 mM MOPS pH 7.0, 0.2 mM EDTA, 200 μM LRRASLG [SEQ ID NO: 50] (Kemptide), 10 mM MgAcetate and [γ-^33P-ATP] (specific activity approx. 500 cpm/pmol, concentration as required). The reaction is initiated by the addition of the MgATP mix. After incubation for 40 minutes at room temperature, the reaction is stopped by the addition of 5 μL of a 3% phosphoric acid solution. 10 μL of the reaction is then spotted onto a P30 filtermat and washed three times for 5 minutes in 50 mM phosphoric acid and once in methanol prior to drying and scintillation counting.
(§2) IC50 values for inhibitor peptides were determined using Millipore's IC50Profiler Express service. The IC50 value was estimated from a 10-point curve of one-half log dilutions. For peptides tested for specificity, the concentration of the peptides that inhibited approximately 95% of MK2 activity was chosen to profile against a battery of kinases related to MK2, cell viability, or human disease from MilliporeKinaseProfiler service. In both assays, compounds were supplied in dimethylsulfoxide (DMSO). Every kinase activity measurement was conducted in duplicate.
(§3) Therapeutic inhibitor peptides were assayed for activity against human kinases related to MK2, cell viability, or human disease. The assays were performed using concentrations of therapeutic inhibitor peptides that yielded 2% to 8% of normal MK2 activity. Error is reported as the standard deviation between 2 samples, and “c” is rat AMPK whereas all other kinases used are human kinases.

FGFR1 = biological target: T2, FGFR1 (Homo sapiens, UniProt P11362); assay: Millipore radiometric kinase activity assay, FGFR1 (h); type: biochemical
T2 construct: purchased Millipore (assay service)
T2 sequence (P11362 22-822): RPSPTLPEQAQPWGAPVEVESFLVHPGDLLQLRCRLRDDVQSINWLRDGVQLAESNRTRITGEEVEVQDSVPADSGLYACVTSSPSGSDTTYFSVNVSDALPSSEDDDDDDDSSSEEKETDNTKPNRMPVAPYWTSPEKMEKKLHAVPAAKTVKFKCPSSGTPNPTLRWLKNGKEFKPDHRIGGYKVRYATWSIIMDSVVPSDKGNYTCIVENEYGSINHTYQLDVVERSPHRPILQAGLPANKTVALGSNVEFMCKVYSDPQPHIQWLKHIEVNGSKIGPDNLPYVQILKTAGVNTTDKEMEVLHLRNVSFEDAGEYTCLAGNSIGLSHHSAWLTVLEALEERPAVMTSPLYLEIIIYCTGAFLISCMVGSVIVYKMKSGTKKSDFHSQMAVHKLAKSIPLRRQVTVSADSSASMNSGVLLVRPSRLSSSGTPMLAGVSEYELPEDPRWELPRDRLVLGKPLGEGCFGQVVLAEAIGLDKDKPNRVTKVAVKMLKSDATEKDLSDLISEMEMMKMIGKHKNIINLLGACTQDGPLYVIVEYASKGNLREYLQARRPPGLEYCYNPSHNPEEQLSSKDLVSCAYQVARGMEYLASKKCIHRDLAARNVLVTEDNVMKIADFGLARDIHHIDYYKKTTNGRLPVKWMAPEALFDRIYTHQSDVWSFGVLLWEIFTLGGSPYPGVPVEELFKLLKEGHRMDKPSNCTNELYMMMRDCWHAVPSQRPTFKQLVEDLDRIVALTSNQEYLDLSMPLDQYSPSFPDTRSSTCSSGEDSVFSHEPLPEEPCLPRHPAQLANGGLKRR
Experimental: as §1
In a final reaction volume of 25 μL, FGFR1 (h) (5-10 mU) is incubated with 8 mM MOPS pH 7.0, 0.2 mM EDTA, 250 μM […] [SEQ ID NO: 56], 10 mM MgAcetate and [γ-^33P-ATP] (specific activity approx. 500 cpm/pmol, concentration as required). The reaction is initiated by the addition of the MgATP mix. After incubation for 40 minutes at room temperature, the reaction is stopped by the addition of 5 μL, of a 3% phosphoric acid solution. 10 μL, of the reaction is then spotted onto a P30 filtermat and washed three times for 5 minutes in 75 mM phosphoric acid and once in methanol prior to drying and scintillation counting.
as §2, §3

Tie2 = biological target: T3, Tie2 (Homo sapiens, UniProt Q02763); assay: Millipore radiometric kinase activity assay, Tie2 (h); type: biochemical
T3 construct: purchased Millipore (radiometric assay service)
T3 sequence (Q02763 23-1124): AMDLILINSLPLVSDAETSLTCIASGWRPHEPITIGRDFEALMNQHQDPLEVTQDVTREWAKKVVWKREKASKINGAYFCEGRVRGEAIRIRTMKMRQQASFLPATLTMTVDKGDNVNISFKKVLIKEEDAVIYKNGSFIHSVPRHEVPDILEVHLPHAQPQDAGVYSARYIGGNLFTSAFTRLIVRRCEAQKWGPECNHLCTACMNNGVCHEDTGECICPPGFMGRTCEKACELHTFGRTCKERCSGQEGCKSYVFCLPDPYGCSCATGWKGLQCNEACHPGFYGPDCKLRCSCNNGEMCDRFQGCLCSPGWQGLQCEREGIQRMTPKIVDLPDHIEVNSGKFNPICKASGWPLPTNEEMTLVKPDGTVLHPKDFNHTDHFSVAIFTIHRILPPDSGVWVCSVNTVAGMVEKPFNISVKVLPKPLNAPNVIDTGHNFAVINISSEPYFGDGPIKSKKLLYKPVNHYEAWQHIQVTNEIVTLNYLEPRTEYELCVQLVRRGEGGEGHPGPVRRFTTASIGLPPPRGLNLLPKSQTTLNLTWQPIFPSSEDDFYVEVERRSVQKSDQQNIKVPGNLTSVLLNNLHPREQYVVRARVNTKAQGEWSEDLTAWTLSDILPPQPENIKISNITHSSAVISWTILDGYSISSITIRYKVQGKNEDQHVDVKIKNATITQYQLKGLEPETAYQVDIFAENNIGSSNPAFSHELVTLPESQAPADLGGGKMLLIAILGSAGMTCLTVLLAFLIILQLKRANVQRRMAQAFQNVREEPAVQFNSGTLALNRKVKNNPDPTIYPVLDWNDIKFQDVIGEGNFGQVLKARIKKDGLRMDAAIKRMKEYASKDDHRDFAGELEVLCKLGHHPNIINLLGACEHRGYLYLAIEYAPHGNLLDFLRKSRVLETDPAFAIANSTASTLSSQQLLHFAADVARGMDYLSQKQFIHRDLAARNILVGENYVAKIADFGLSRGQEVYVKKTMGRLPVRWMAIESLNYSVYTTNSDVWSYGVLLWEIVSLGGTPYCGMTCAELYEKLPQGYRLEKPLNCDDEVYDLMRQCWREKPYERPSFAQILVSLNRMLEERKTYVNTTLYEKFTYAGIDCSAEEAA
Experimental: as §1
In a final reaction volume of 25 μL, Tie2 (h) (5-10 mU) is incubated with 8 mM MOPS pH 7.0, 0.2 mM EDTA, 0.5 mM MnCl2, 0.1 mg/mL poly(Glu, Tyr) 4:1, 10 mM MgAcetate and [γ-^33P-ATP] (specific activity approx. 500 cpm/pmol, concentration as required). The reaction is initiated by the addition of the MgATP mix. After incubation for 40 minutes at room temperature, the reaction is stopped by the addition of 5 μL of a 3% phosphoric acid solution. 10 μL of the reaction is then spotted onto a Filtermat A and washed three times for 5 minutes in 75 mM phosphoric acid and once in methanol prior to drying and scintillation counting.
IC50 values for inhibitor peptides were determined using Millipore's IC50Profiler Express service. The IC50 value was estimated from a 10-point curve of one-half log dilutions. […]

10 Human Kinases = assay: Specificity of complete inhibitor peptide variants on 10 human kinases; type: biochemical; conditions: Table 5
Experimental: as §1, §2
Additional therapeutic inhibitor peptide variants were assayed for activity against several human kinases representative of several families of kinases. […]

MK2 = MK2 (Homo sapiens, UniProt P49137); assay: Omnia fluorescence-based kinase activity assay for MAPKAP-K2 (reaction velocity); type: biochemical; design: purchased Invitrogen; conditions: 100 μM peptide; percentage change in MK2 reaction velocity versus unsubstituted KALNRQLGVAA at 100 μM; SD of three samples
Chain of MK2 (P49137 whole entry): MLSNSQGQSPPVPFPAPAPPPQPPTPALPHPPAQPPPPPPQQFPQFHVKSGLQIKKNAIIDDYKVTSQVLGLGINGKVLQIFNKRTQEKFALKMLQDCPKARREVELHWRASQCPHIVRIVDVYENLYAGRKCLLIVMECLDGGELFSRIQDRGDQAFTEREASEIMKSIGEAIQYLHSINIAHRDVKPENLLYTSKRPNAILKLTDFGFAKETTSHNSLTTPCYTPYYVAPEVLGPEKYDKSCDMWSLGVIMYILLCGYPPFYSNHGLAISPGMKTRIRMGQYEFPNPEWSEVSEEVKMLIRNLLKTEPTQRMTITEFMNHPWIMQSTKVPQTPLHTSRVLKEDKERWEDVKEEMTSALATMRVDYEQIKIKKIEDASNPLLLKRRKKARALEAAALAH
Experimental: The Omnia® Kinase Assay for MAPKAP-K2 kit (Invitrogen, Carlsbad, Calif.), was used to determine the reaction velocity for MK2 in the presence and absence of each of the peptides listed in Table 1. The kit contains a proprietary reaction buffer to which the following were added (final concentrations are given): 1 mM ATP, 0.2 mM DTT, 10 μM MAPKAP-K2 Sox-modified peptide substrate, 5 ng MK2, and the inhibitor peptide of interest (final volume of 50 μL). Human MK2 was purchased from Invitrogen. The reactions were performed at 30° C. in the wells of a low-protein-binding 96-well plate provided with the kit, and fluorescence readings (excitation=360 nm, emission=485 nm) were taken every 30 seconds for 20 minutes using a SpectraMax M5 Spectrophotometer (Molecular Devices). Reaction velocity was determined for each reaction well from the slope of a plot of relative fluorescence units versus time. Each inhibitor peptide was tested at least at four concentrations, 12.5, 25, 50 and […], in triplicate.
In Table 1, “a” represents that the results shown are for 100 μM for all peptides; “b” represents the percentage change in MK2 reaction velocity versus the unsubstituted peptide ([…]) [SEQ ID NO: 13] at a concentration of 100 μM; “c” represents the error reported as the standard deviation between three samples.

[1] = tested on: IL-6 expression in triple culture of neurons, astrocytes and microglia; conditions: 1 mM or 3 mM MK2i with TNF-α 5 or 10 ng/ml
Experimental: The inhibitory effect of therapeutic inhibitor protein having amino acid sequence [sequence] [SEQ ID NO: 11] on IL-6 production was studied in a triple culture consisting of neurons, astrocytes and microglia. […] The E18 cells were plated (1×10^6 cells/ml) to support differentiation into neurons, astrocytes and microglia. […] The positive control comprised treating the cells with TNF-α (either 5 ng/ml or 10 ng/ml); as a negative control, the cells were exposed to cell media without any treatment. […] Cytokines with or without therapeutic inhibitor peptide were always added simultaneously in this media formulation.

In the case of KAFAKLAARLYRKALARQLGVAA, the “Aurora-A Kinase Activity (%) (+SD %)” value (Aurora-A; peptide 100 μM) was 60 (1) % and the “FGFR1 Kinase Activity (%) (+SD %)” value (FGFR1; peptide 100 μM) was 35 (1) %.

In the case of WLRRIKAWLRRIKALNRQLGVAA, the “Tie2 Kinase Activity (%) (+SD %)” value (Tie2; peptide 30 μM) was 17 (1) %, the “Tie2 Kinase Activity (%) (+SD %)” value (Tie2; peptide 100 μM) was 0 (0) % and the “specificity among therapeutic inhibitor peptides (in words)” value (10 Human Kinases) was “least specificity”. For the same sequence, the “Aurora-A Kinase Activity (%) (+SD %)” value (Aurora-A; peptide 30 μM) was 46 (1) %, the “Aurora-A Kinase Activity (%) (+SD %)” value (Aurora-A; peptide 100 μM) was 65 (5) % and the “FGFR1 Kinase Activity (%) (+SD %)” value (FGFR1; peptide 30 μM) was 27 (1) %. The “FGFR1 Kinase Activity (%) (+SD %)” value (FGFR1; peptide 100 μM) was 22 (1) % and the “percent change in MK2 reaction velocity versus unsubstituted peptide” value (MK2) was −132(10) %.

With YARAAARQARAKALARQLGVAA the “level of expression of IL-6 (FIG. 11)” value [1] was “reduced levels of expression of IL-6”.
